Measurements from IntAct's records for PubMed 16390871.

B1: Hsp90 co-chaperone Cdc37 (Schizosaccharomyces pombe (strain ATCC 38366 / 972)), O94740 (parent)
chain: MAIDYSKWDKLELSDDSDIEVHPNVDKKSFIRWRQRDIHEKRAVRKQKMEDIKGAMAMNRRLLSRISEMETVLEKESPSDPYVLLGSFLEAKKSEDMDSAIPGGMSYHHMLMSLLKVIKDAEDTTEEKSMDDSDKCLRRLKSHKERLLKLLEDAQKEYDTLEAESKNYITSEDLHLGFDSTYVQKKEPEKPKKTKTKKETIQVIESLNNPTPPTDFPGAKEQASTGNAPKNPVNENESEDEEGLSLSEDGKKFANIDFGDYSSSEEFLKEHLNILADEEESDAILLEAFNAELEGKPSLAKQYVHQALLISYCRQLGPNGLSIFFQKIKDPNHQSQRLFLEDVHNTYVRIHERSAAISKEQAESGEGVEQIQLCAVDPNTKLSITIPEAGSTDPETQKARAAFESFPPNLQKALMTNDLDKINVVLGKMAVENAEEVVEKLSSTGMLSIEEGIIDTTKGETIPQLS

Variants of: B1
Conditions: with cdk1_schpo cdc2, P04551
Chain of cdk1_schpo cdc2, P04551 (P04551 whole entry): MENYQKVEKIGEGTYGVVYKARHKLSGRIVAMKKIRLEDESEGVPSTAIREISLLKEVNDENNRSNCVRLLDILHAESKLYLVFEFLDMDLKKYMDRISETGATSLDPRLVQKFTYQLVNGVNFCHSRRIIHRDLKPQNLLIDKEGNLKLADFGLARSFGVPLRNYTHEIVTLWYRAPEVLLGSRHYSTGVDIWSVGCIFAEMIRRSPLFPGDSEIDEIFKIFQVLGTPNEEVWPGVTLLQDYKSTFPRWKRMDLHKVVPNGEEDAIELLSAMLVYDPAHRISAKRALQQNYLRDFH

effect of a mutation on the interaction | Variant
decreasing interaction | E287D
decreasing interaction | L285P
